Binding result and Kd data for 21 molecules are collected here from article PMC3219716, “Indirect DNA Readout by an H-NS Related Protein: Structure of the DNA Complex of the C-Terminal Domain of Ler”.

Sequences and labels used below:
T1: CT-Ler (Escherichia coli EHEC O157:H7, UniProt Q7DB51 70-116)
T1 chain: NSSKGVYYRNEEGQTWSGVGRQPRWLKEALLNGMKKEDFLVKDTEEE

T2: CT-Ler R90Q (Escherichia coli EHEC O157:H7, UniProt Q7DB51 70-116, R90Q)
T2 chain: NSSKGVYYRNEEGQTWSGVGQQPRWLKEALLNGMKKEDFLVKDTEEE

T3: CT-Ler R90G (Escherichia coli EHEC O157:H7, UniProt Q7DB51 70-116, R90G)
T3 chain: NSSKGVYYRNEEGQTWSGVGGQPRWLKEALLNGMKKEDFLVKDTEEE

T4: CT-H-NS (UniProt P0ACF8 95-137)
T4 chain: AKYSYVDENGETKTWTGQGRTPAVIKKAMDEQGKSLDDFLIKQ

B1: LeeF (dsDNA)
DNA 1: TTTCTTTTTTTATTGAAATAATTGATAATA
DNA 2: TATTATCAATTATTTCAATAAAAAAAGAAA
B2: LeeG (dsDNA)
DNA 1: AAATAATTGATAATAATGTTTTTGTTACGT
DNA 2: ACGTAACAAAAACATTATTATCAATTATTT
B3: LeeH (WT) (dsDNA)
DNA 1: GCGATAATTGATACC
DNA 2: GGTATCAATTATCGC
B4: LeeH T9C (dsDNA)
DNA 1: GCGATAATCGATACC
DNA 2: GGTATCGATTATCGC
B5: LeeH T5C (dsDNA)
DNA 1: GCGACAATTGATACC
DNA 2: GGTATCAATTGTCGC
B6: AAAT 10-mer (dsDNA)
DNA 1: CGCAAATGCG
DNA 2: CGCATTTGCG
B7: LeeH A4G (dsDNA)
DNA 1: GCGGTAATTGATACC
DNA 2: GGTATCAATTACCGC
B8: LeeH A13G (dsDNA)
DNA 1: GCGATAATTGATGCC
DNA 2: GGCATCAATTATCGC
B9: AATA 10-mer (dsDNA)
DNA 1: CGCAATAGCG
DNA 2: CGCTATTGCG
B10: LeeH T12C (dsDNA)
DNA 1: GCGATAATTGACACC
DNA 2: GGTGTCAATTATCGC
B11: LeeH A11G (dsDNA)
DNA 1: GCGATAATTGGTACC
DNA 2: GGTACCAATTATCGC
B12: LeeH T8C (dsDNA)
DNA 1: GCGATAACTGATACC
DNA 2: GGTATCAGTTATCGC
B13: LeeH A7G (dsDNA)
DNA 1: GCGATAGTTGATACC
DNA 2: GGTATCAACTATCGC
B14: AAAA 10-mer (dsDNA)
DNA 1: CGCAAAAGCG
DNA 2: CGCTTTTGCG
B15: LeeH G10A (dsDNA)
DNA 1: GCGATAATTAATACC
DNA 2: GGTATTAATTATCGC
B16: LeeH A6G (dsDNA)
DNA 1: GCGATGATTGATACC
DNA 2: GGTATCAATCATCGC
B17: TATA 10-mer (dsDNA)
DNA 1: CGCTATAGCG
DNA 2: CGCTATAGCG
B18: AATT 10-mer (dsDNA)
DNA 1: CGCAATTGCG
DNA 2: CGCAATTGCG
B19: AATTC 10-mer (dsDNA)
DNA 1: CGGAATTCCG
DNA 2: CGGAATTCCG
B20: TTAA 10-mer (dsDNA)
DNA 1: CGCTTAAGCG
DNA 2: CGCTTAAGCG
B21: LeeFG (dsDNA)
DNA 1: AAATAATTGATAATA
DNA 2: TATTATCAATTATTT

One data set addresses T1, CT-Ler. Description: fluorescence anisotropy; among highest affinities; Anisotropy: 40 mM HEPES pH 7.5, 60 mM K-glutamate, 0.01% NaN3, 20 C; EMSA: 15 mM Na-phosphate pH 7.5, 100 mM NaCl, 0.01% NaN3, room temperature; NMR structure:
As to conditions: protein: recombinant; tags: N-terminal His6 (pHAT2); blunt.
As for B1, the binding result was “binds”. For B2, the binding result is on record as “binds”.

The target of another data set is T2, CT-Ler R90Q. The data set is described as follows: fluorescence anisotropy; Anisotropy: 40 mM HEPES pH 7.5, 60 mM K-glutamate, 0.01% NaN3, 20 C; EMSA: 15 mM Na-phosphate pH 7.5, 100 mM NaCl, 0.01% NaN3, room temperature; NMR structure:
Conditions: protein: recombinant; tags: N-terminal His6 (pHAT2); blunt. Background: In fluorescence polarisation assays a small probe gives low polarisation when free and higher when bound to something large.
On to B3, for which the binding result was “no binding”.

The target of the next data set is T3, CT-Ler R90G. Described as above. Conditions: protein: recombinant; tags: N-terminal His6 (pHAT2); blunt.
For the molecule B3, the binding result is given as “no binding”.

For a further data set, the target named is T1, CT-Ler. The description is as above. As to conditions: protein: recombinant; tags: N-terminal His6 (pHAT2); blunt.
What is called Kd is the free concentration of one partner at which half of the binding sites on the other are occupied at equilibrium, for simple one-to-one binding. In the case of B4, the Kd is 1.36 ± 0.08 µM.

Regarding B5, the Kd was found to be 1.38 ± 0.11 µM. For B6, the dissociation constant Kd was determined as 6.17 ± 0.36 µM. Turning to B7, the Kd came out at 1.06 ± 0.08 µM. Same read-out and setting: the result for B8 reads 1.48 ± 0.09 µM; that for B3, 1.1 ± 0.05 µM.

As to B9, the Kd is 11.5 ± 0.96 µM. B10: the Kd worked out at 1.45 ± 0.1 µM. The same measure, in the same setting: the same measure for B11: 1.43 ± 0.04 µM; for B12: 1.7 ± 0.13 µM; for B13: 2.71 ± 0.32 µM. As for B14, the Kd is 8.07 ± 0.22 µM. In the case of B15, the Kd was found to be 2.31 ± 0.07 µM. In the case of B16, the equilibrium dissociation constant (Kd) turned out to be 2.48 ± 0.2 µM.

The data set is the same for the next values; noted with them: protein: recombinant; tags: N-terminal His6 (pHAT2); blunt, self-complementary.
Take B17: the Kd came to 16.6 ± 2.2 µM.

For the molecule B18, the Kd stood at 3.45 ± 0.56 µM.

For the molecule B19, the Kd is 4.14 ± 0.31 µM. Still for that read-out and setting: the same measure for B20: 22.8 ± 2.99 µM.

The target of a further data set is T1, CT-Ler. Description: fluorescence anisotropy; deviates from 1:1 model, multiple binding suggested; Anisotropy: 40 mM HEPES pH 7.5, 60 mM K-glutamate, 0.01% NaN3, 20 C; EMSA: 15 mM Na-phosphate pH 7.5, 100 mM NaCl, 0.01% NaN3, room temperature; NMR structure:
Conditions: protein: recombinant; tags: N-terminal His6 (pHAT2); blunt.
Regarding B21, the binding result is listed as “binds”.

For a further data set, the target named is T4, CT-H-NS. Description: NMR titration (1H-15N HSQC); Anisotropy: 40 mM HEPES pH 7.5, 60 mM K-glutamate, 0.01% NaN3, 20 C; EMSA: 15 mM Na-phosphate pH 7.5, 100 mM NaCl, 0.01% NaN3, room temperature; NMR structure:
Conditions: protein: recombinant; tags: N-terminal His6 (pHAT2); blunt, self-complementary. On the technique in general: In EMSA bound probe runs differently from free probe, usually more slowly.
On to B17, for which the Kd was roughly 102 µM. Regarding B18, the Kd is roughly 41 µM.
